Here are results for six molecules from patent US20250262210A1 (TRUSTEES OF COLUMBIA UNIVERSITY IN THE CITY OF NEW YORK, published 2025).

Test [1] concerns the target T1, LZTR1 R810W-FLAG (human, UniProt Q8N653 1-840).
T1 construct: Stably expressed in U87 cells by lentivirus; also called LZTR1-FLAG-R810W; LZTR1 RW; not shown: FLAG tag
T1 sequence (looked up): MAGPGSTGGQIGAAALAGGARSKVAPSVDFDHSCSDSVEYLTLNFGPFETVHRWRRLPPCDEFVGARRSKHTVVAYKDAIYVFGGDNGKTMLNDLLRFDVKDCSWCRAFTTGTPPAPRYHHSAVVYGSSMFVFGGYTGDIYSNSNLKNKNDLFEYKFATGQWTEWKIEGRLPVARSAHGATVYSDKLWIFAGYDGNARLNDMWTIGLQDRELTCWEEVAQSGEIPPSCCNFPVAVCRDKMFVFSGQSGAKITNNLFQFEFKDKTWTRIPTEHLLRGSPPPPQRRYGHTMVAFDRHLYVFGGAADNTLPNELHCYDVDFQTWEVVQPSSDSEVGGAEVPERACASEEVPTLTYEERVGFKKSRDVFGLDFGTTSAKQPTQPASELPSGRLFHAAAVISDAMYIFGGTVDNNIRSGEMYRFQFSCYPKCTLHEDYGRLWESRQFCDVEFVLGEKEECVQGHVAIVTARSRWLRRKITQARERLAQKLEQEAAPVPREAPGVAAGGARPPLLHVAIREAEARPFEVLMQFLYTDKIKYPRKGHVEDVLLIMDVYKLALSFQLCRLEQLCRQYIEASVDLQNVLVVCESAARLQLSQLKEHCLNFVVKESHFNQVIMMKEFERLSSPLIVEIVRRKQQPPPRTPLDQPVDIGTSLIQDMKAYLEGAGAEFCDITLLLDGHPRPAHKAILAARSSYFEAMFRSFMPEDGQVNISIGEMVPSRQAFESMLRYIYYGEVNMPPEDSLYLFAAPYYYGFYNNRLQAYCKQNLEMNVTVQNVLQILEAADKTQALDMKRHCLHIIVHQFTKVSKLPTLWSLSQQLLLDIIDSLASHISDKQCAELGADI
As to the kind of experiment: IP/MS, LZTR1 R810W-FLAG, U87. The procedure, abridged:
(§1)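 Read-out: spectral counts from LC-MS/MS (Orbitrap Fusion) after MaxQuant identification. Variable modifications were Met oxidation, protein N-terminal acetylation and N/Q deamidation.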

Test [2] concerns the target T2, LZTR1-FLAG (human, UniProt Q8N653 1-840).
T2 construct: Expressed in HEK 293T, HeLa or U87 cells; used as cell lysate; also called LZTR1 wild type-FLAG; LZTR1 WT; not shown: FLAG tag at the C-terminus
T2 sequence (looked up): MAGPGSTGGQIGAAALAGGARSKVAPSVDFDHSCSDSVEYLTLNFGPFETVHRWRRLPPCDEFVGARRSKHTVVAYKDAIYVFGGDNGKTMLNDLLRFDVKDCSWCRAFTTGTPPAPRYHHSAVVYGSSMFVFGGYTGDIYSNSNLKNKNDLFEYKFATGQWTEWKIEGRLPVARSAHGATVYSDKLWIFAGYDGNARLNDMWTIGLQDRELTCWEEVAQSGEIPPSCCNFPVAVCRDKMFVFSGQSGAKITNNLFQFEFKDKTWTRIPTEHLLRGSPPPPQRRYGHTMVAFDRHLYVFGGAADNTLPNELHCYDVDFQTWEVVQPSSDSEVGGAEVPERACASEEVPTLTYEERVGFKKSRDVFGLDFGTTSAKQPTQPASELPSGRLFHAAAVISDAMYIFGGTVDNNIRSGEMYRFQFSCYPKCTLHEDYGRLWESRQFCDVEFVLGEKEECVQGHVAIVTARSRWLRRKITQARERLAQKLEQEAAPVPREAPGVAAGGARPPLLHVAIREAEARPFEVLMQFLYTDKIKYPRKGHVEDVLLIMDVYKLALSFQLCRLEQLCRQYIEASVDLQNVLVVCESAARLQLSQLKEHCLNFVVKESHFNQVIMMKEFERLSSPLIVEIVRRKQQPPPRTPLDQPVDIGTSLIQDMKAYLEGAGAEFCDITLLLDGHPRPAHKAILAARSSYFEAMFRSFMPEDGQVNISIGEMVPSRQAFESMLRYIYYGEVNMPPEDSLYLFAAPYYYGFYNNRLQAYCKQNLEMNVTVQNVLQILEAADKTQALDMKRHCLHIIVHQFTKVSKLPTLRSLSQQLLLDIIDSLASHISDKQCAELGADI
As to the kind of experiment: IP/MS, LZTR1 wild type-FLAG, U87. In short, it runs like this: as §1

B1: SYDE1 (other, human, UniProt Q6ZW31 1-735, looked up)
chain: MAEPLLRKTFSRLRGREKLPRKKSDAKERGHPAQRPEPSPPEPEPQAPEGSQAGAEGPSSPEASRSPARGAYLQSLEPSSRRWVLGGAKPAEDTSLGPGVPGTGEPAGEIWYNPIPEEDPRPPAPEPPGPQPGSAESEGLAPQGAAPASPPTKASRTKSPGPARRLSIKMKKLPELRRRLSLRGPRAGRERERAAPAGSVISRYHLDSSVGGPGPAAGPGGTRSPRAGYLSDGDSPERPAGPPSPTSFRPYEVGPAARAPPAALWGRLSLHLYGLGGLRPAPGATPRDLCCLLQVDGEARARTGPLRGGPDFLRLDHTFHLELEAARLLRALVLAWDPGVRRHRPCAQGTVLLPTVFRGCQAQQLAVRLEPQGLLYAKLTLSEQQEAPATAEPRVFGLPLPLLVERERPPGQVPLIIQKCVGQIERRGLRVVGLYRLCGSAAVKKELRDAFERDSAAVCLSEDLYPDINVITGILKDYLRELPTPLITQPLYKVVLEAMARDPPNRVPPTTEGTRGLLSCLPDVERATLTLLLDHLRLVSSFHAYNRMTPQNLAVCFGPVLLPARQAPTRPRARSSGPGLASAVDFKHHIEVLHYLLQSWPDPRLPRQSPDVAPYLRPKRQPPLHLPLADPEVVTRPRGRGGPESPPSNRYAGDWSVCGRDFLPCGRDFLSGPDYDHVTGSDSEDEDEEVGEPRVTGDFEDDFDAPFNPHLNLKDFDALILDLERELSKQINVCL
On to B1, for which the binding result in test [1] and in test [2] was “binds” in each case.

B2: UBXN6 (other, human, UniProt Q9BZV1 1-441, looked up)
chain: MKKFFQEFKADIKFKSAGPGQKLKESVGEKAHKEKPNQPAPRPPRQGPTNEAQMAAAAALARLEQKQSRAWGPTSQDTIRNQVRKELQAEATVSGSPEAPGTNVVSEPREEGSAHLAVPGVYFTCPLTGATLRKDQRDACIKEAILLHFSTDPVAASIMKIYTFNKDQDRVKLGVDTIAKYLDNIHLHPEEEKYRKIKLQNKVFQERINCLEGTHEFFEAIGFQKVLLPAQDQEDPEEFYVLSETTLAQPQSLERHKEQLLAAEPVRAKLDRQRRVFQPSPLASQFELPGDFFNLTAEEIKREQRLRSEAVERLSVLRTKAMREKEEQRGLRKYNYTLLRVRLPDGCLLQGTFYARERLGAVYGFVREALQSDWLPFELLASGGQKLSEDENLALNECGLVPSALLTFSWDMAVLEDIKAAGAEPDSILKPELLSAIEKLL
For the molecule B2, the binding result in test [1] and in test [2] was “binds” each time.

B3: TRAPPC12 (other, human, UniProt Q8WVT3 1-735, looked up)
chain: MEDAGGGEETPAPEAPHPPQLAPPEEQGLLFQEETIDLGGDEFGSEENETASEGSSPLADKLNEHMMESVLISDSPNSEGDAGDLGRVRDEAEPGGEGDPGPEPAGTPSPSGEADGDCAPEDAAPSSGGAPRQDAAREVPGSEAARPEQEPPVAEPVPVCTIFSQRAPPASGDGFEPQMVKSPSFGGASEASARTPPQVVQPSPSLSTFFGDTAASHSLASDFFDSFTTSAFISVSNPGAGSPAPASPPPLAVPGTEGRPEPVAMRGPQAAAPPASPEPFAHIQAVFAGSDDPFATALSMSEMDRRNDAWLPGEATRGVLRAVATQQRGAVFVDKENLTMPGLRFDNIQGDAVKDLMLRFLGEKAAAKRQVLNADSVEQSFVGLKQLISCRNWRAAVDLCGRLLTAHGQGYGKSGLLTSHTTDSLQLWFVRLALLVKLGLFQNAEMEFEPFGNLDQPDLYYEYYPHVYPGRRGSMVPFSMRILHAELQQYLGNPQESLDRLHKVKTVCSKILANLEQGLAEDGGMSSVTQEGRQASIRLWRSRLGRVMYSMANCLLLMKDYVLAVEAYHSVIKYYPEQEPQLLSGIGRISLQIGDIKTAEKYFQDVEKVTQKLDGLQGKIMVLMNSAFLHLGQNNFAEAHRFFTEILRMDPRNAVANNNAAVCLLYLGKLKDSLRQLEAMVQQDPRHYLHESVLFNLTTMYELESSRSMQKKQALLEAVAGKEGDSFNTQCLKLA
On to B3, for which the binding result in test [1] and in test [2] was “binds” each time.

B4: TBK1 (other, human, UniProt Q9UHD2 1-729, looked up)
chain: MQSTSNHLWLLSDILGQGATANVFRGRHKKTGDLFAIKVFNNISFLRPVDVQMREFEVLKKLNHKNIVKLFAIEEETTTRHKVLIMEFCPCGSLYTVLEEPSNAYGLPESEFLIVLRDVVGGMNHLRENGIVHRDIKPGNIMRVIGEDGQSVYKLTDFGAARELEDDEQFVSLYGTEEYLHPDMYERAVLRKDHQKKYGATVDLWSIGVTFYHAATGSLPFRPFEGPRRNKEVMYKIITGKPSGAISGVQKAENGPIDWSGDMPVSCSLSRGLQVLLTPVLANILEADQEKCWGFDQFFAETSDILHRMVIHVFSLQQMTAHKIYIHSYNTATIFHELVYKQTKIISSNQELIYEGRRLVLEPGRLAQHFPKTTEENPIFVVSREPLNTIGLIYEKISLPKVHPRYDLDGDASMAKAITGVVCYACRIASTLLLYQELMRKGIRWLIELIKDDYNETVHKKTEVVITLDFCIRNIEKTVKVYEKLMKINLEAAELGEISDIHTKLLRLSSSQGTIETSLQDIDSRLSPGGSLADAWAHQEGTHPKDRNVEKLQVLLNCMTEIYYQFKKDKAERRLAYNEEQIHKFDKQKLYYHATKAMTHFTDECVKKYEAFLNKSEEWIRKMLHLRKQLLSLTNQCFDIEEEVSKYQEYTNELQETLPQKMFTASSGIKHTMTPIYPSSNTLVEMTLGMKKLKEEMEGVVKELAENNHILERFGSLTMDGGLRNVDCL
Regarding B4, the binding result in test [1] and in test [2] was “binds” throughout.

B5: TRIM47 (other, human, UniProt Q96LD4 1-638, looked up)
chain: MDGSGPFSCPICLEPLREPVTLPCGHNFCLACLGALWPHRGASGAGGPGGAARCPLCQEPFPDGLQLRKNHTLSELLQLRQGSGPGSGPGPAPALAPEPSAPSALPSVPEPSAPCAPEPWPAGEEPVRCDACPEGAALPAALSCLSCLASFCPAHLGPHERSPALRGHRLVPPLRRLEESLCPRHLRPLERYCRAERVCLCEACAAQEHRGHELVPLEQERALQEAEQSKVLSAVEDRMDELGAGIAQSRRTVALIKSAAVAERERVSRLFADAAAALQGFQTQVLGFIEEGEAAMLGRSQGDLRRQEEQRSRLSRARQNLSQVPEADSVSFLQELLALRLALEDGCGPGPGPPRELSFTKSSQAVRAVRDMLAVACVNQWEQLRGPGGNEDGPQKLDSEADAEPQDLESTNLLESEAPRDYFLKFAYIVDLDSDTADKFLQLFGTKGVKRVLCPINYPLSPTRFTHCEQVLGEGALDRGTYYWEVEIIEGWVSMGVMAEDFSPQEPYDRGRLGRNAHSCCLQWNGRSFSVWFHGLEAPLPHPFSPTVGVCLEYADRALAFYAVRDGKMSLLRRLKASRPRRGGIPASPIDPFQSRLDSHFAGLFTHRLKPAFFLESVDAHLQIGPLKKSCISVLKRR
For B5, the binding result in test [1] and in test [2] was “binds” each time.

B6: TELO2 (other, human, UniProt Q9Y4R8 1-837, looked up)
chain: MEPAPSEVRLAVREAIHALSSSEDGGHIFCTLESLKRYLGEMEPPALPREKEEFASAHFSPVLRCLASRLSPAWLELLPHGRLEELWASFFLEGPADQAFLVLMETIEGAAGPSFRLMKMARLLARFLREGRLAVLMEAQCRQQTQPGFILLRETLLGKVVALPDHLGNRLQQENLAEFFPQNYFRLLGEEVVRVLQAVVDSLQGGLDSSVSFVSQVLGKACVHGRQQEILGVLVPRLAALTQGSYLHQRVCWRLVEQVPDRAMEAVLTGLVEAALGPEVLSRLLGNLVVKNKKAQFVMTQKLLFLQSRLTTPMLQSLLGHLAMDSQRRPLLLQVLKELLETWGSSSAIRHTPLPQQRHVSKAVLICLAQLGEPELRDSRDELLASMMAGVKCRLDSSLPPVRRLGMIVAEVVSARIHPEGPPLKFQYEEDELSLELLALASPQPAGDGASEAGTSLVPATAEPPAETPAEIVDGGVPQAQLAGSDSDLDSDDEFVPYDMSGDRELKSSKAPAYVRDCVEALTTSEDIERWEAALRALEGLVYRSPTATREVSVELAKVLLHLEEKTCVVGFAGLRQRALVAVTVTDPAPVADYLTSQFYALNYSLRQRMDILDVLTLAAQELSRPGCLGRTPQPGSPSPNTPCLPEAAVSQPGSAVASDWRVVVEERIRSKTQRLSKGGPRQGPAGSPSRFNSVAGHFFFPLLQRFDRPLVTFDLLGEDQLVLGRLAHTLGALMCLAVNTTVAVAMGKALLEFVWALRFHIDAYVRQGLLSAVSSVLLSLPAARLLEDLMDELLEARSWLADVAEKDPDEDCRTLALRALLLLQRLKNRLLPPASP
Regarding B6, the binding result in test [1] and in test [2] was “binds” each time.
